Results from patent US7291332B2, “Inflammatory mediator antagonists” (SmithKline Beecham Corporation, priority 1998, dated 2007).

Tested on: HepG2 B6 cells (STAT-sPAP reporter)
Test: OSM-GST mutant driven sPAP production in HepG2 B6 assay
Format: cell-based, human
Conditions: for 'Potency': relative to wild type, from Mean %
Experimental: HepG2 B6 cells were plated into 96 well plates to a final concentration of 3×10^4 cells per well in 100 μl of media (DMEM (Sigma), 10% HI FCS, 1% non-essential amino acids, 2 mM Glutamine, 500 μg ml^−1 G418, (all from Life Technologies)). Cells were allowed to equilibrate for 48 hours. Putative anti-OSM solid compounds were made up to a stock dilution of 20 mM in DMSO and serially diluted 1:3 in DMSO. This was then further diluted in HepG26B assay media, this is as above media but with 1% heat inactivated FCS, low alkaline phosphatase activity (Life Technologies) substituted for 10% HI FCS. Compounds were diluted 1:3 from a top concentration of […] to a final concentration of 0.09 μM in a final concentration of 1% DMSO. (That is 200, 66.67, 22.22, 7.41, 2.47, 0.82, 0.27, 0.09 and 0 μM). The old media was removed from the wells and replaced with diluted compound also containing 2 ng ml^−1 OSM (R&D Systems), cells were incubated for a further 20 hours. Each dilution was performed in triplicate. 20 μl of media was removed from each well and assayed for sPAP activity using pNPP (p-Nitrophenyl phosphate; Sigma), as a substrate. Endogenous alkaline phosphatase is blocked with L-homoarginine. Optical density of substrate is read at 405-650 nm. Concentration of compound is plotted against OD as a measure of sPAP produced and can be analysed to determine IC50 values.
The assay described in Example 7b above was employed. OSM-GST mutants were diluted to a concentration of 100 ng ml^−using the known concentration of intact OSM mutants generated in Example 9b. A wild type OSM-GST was included for control purposes. Dilutions were made in HepG2 B6 media with 1% heat inactivated FCS, low alkaline phosphatase activity. Serial 1:3 dilutions were then made. (100; 33.33; 11.11; 3.7; 1.23; 0.4 ng ml^−1). 3×10^4 HepG2 B6 were dispensed into individual well of a 96 well plate in 100 μl of media. Cells were allowed to equilibrate for 48 hours. Media was then removed and replaced with 100 μl of diluted OSM-GST mutant. Cells were incubated for a further 20 hours. Each dilution was performed in triplicate. 20 μl of media was removed and assayed for sPAP using pNPP as a substrate. Endogenous ALP was blocked with L-homoarginine. O.D. was read at 405-650 nm. The experiment was repeated twice.

wild type: wild type human OSM-GST fusion protein [reference compound]
Expt 1 EC50: 0.024 µg/mL | Expt 2 EC50: 0.032 µg/mL

B1: (4) Y10A: OSM-GST fusion, alanine for Tyr 10 (protein)
chain: AAIGSCSKEARVLLGQLQKQTDLMQDTSRLLDPYIRIQGLDVPKLREHCRERPGAFPSEETLRGLGRRGFLQTLNATLGCVLHRLADLEQRLPKAQDLERSGLNIEDLEKLQMARPNILGLRNNIYCMAQLLDNSDTAEPTKAGRGASQPPTPTPASDAFQRKLEGCRFLHGYHRFMHSVGRVFSKWGESPNRSRR
modifications: left off: a dimerising Fc or GST; large carriers; small tags and cut ends
Expt 1 EC50: 0.0324 µg/mL | Expt 2 EC50: 0.082 µg/mL | 'Potency': LESS (>120% Less potent than wild type)

B2: (18) N117A: OSM-GST fusion, alanine for Asn 117 (protein)
chain: AAIGSCSKEYRVLLGQLQKQTDLMQDTSRLLDPYIRIQGLDVPKLREHCRERPGAFPSEETLRGLGRRGFLQTLNATLGCVLHRLADLEQRLPKAQDLERSGLNIEDLEKLQMARPAILGLRNNIYCMAQLLDNSDTAEPTKAGRGASQPPTPTPASDAFQRKLEGCRFLHGYHRFMHSVGRVFSKWGESPNRSRR
modifications: left off: a dimerising Fc or GST; large carriers; small tags and cut ends
Expt 1 EC50: 0.058 µg/mL | Expt 2 EC50: 0.0425 µg/mL | 'Potency': LESS (>120% Less potent than wild type)

B3: (10) L17A: OSM-GST fusion, alanine for Leu 17 (protein)
chain: AAIGSCSKEYRVLLGQAQKQTDLMQDTSRLLDPYIRIQGLDVPKLREHCRERPGAFPSEETLRGLGRRGFLQTLNATLGCVLHRLADLEQRLPKAQDLERSGLNIEDLEKLQMARPNILGLRNNIYCMAQLLDNSDTAEPTKAGRGASQPPTPTPASDAFQRKLEGCRFLHGYHRFMHSVGRVFSKWGESPNRSRR
modifications: left off: a dimerising Fc or GST; large carriers; small tags and cut ends
Expt 1 EC50: 0.0727 µg/mL | Expt 2 EC50: 0.056 µg/mL | 'Potency': LESS (>120% Less potent than wild type)

B4: (8) G15A: OSM-GST fusion, alanine for Gly 15 (protein)
chain: AAIGSCSKEYRVLLAQLQKQTDLMQDTSRLLDPYIRIQGLDVPKLREHCRERPGAFPSEETLRGLGRRGFLQTLNATLGCVLHRLADLEQRLPKAQDLERSGLNIEDLEKLQMARPNILGLRNNIYCMAQLLDNSDTAEPTKAGRGASQPPTPTPASDAFQRKLEGCRFLHGYHRFMHSVGRVFSKWGESPNRSRR
modifications: left off: a dimerising Fc or GST; large carriers; small tags and cut ends
Expt 1 EC50: 0.021 µg/mL | Expt 2 EC50: 0.0178 µg/mL | 'Potency': MORE (<80% More potent)

B5: (14) T21A: OSM-GST fusion, alanine for Thr 21 (protein)
chain: AAIGSCSKEYRVLLGQLQKQADLMQDTSRLLDPYIRIQGLDVPKLREHCRERPGAFPSEETLRGLGRRGFLQTLNATLGCVLHRLADLEQRLPKAQDLERSGLNIEDLEKLQMARPNILGLRNNIYCMAQLLDNSDTAEPTKAGRGASQPPTPTPASDAFQRKLEGCRFLHGYHRFMHSVGRVFSKWGESPNRSRR
modifications: left off: a dimerising Fc or GST; large carriers; small tags and cut ends
Expt 1 EC50: 0.017 µg/mL | Expt 2 EC50: 0.0105 µg/mL | 'Potency': MORE (<80% More potent)

B6: (11) Q18A: OSM-GST fusion, alanine for Gln 18 (protein)
chain: AAIGSCSKEYRVLLGQLAKQTDLMQDTSRLLDPYIRIQGLDVPKLREHCRERPGAFPSEETLRGLGRRGFLQTLNATLGCVLHRLADLEQRLPKAQDLERSGLNIEDLEKLQMARPNILGLRNNIYCMAQLLDNSDTAEPTKAGRGASQPPTPTPASDAFQRKLEGCRFLHGYHRFMHSVGRVFSKWGESPNRSRR
modifications: left off: a dimerising Fc or GST; large carriers; small tags and cut ends
Expt 1 EC50: 0.0202 µg/mL | Expt 2 EC50: 0.0217 µg/mL | 'Potency': MORE (<80% More potent)

B7: (12) K19A: OSM-GST fusion, alanine for Lys 19 (protein)
chain: AAIGSCSKEYRVLLGQLQAQTDLMQDTSRLLDPYIRIQGLDVPKLREHCRERPGAFPSEETLRGLGRRGFLQTLNATLGCVLHRLADLEQRLPKAQDLERSGLNIEDLEKLQMARPNILGLRNNIYCMAQLLDNSDTAEPTKAGRGASQPPTPTPASDAFQRKLEGCRFLHGYHRFMHSVGRVFSKWGESPNRSRR
modifications: left off: a dimerising Fc or GST; large carriers; small tags and cut ends
Expt 1 EC50: 0.0236 µg/mL | Expt 2 EC50: 0.0119 µg/mL | 'Potency': MORE (<80% More potent)

B8: (15) D22: OSM-GST fusion, alanine for Asp 22 (protein)
chain: AAIGSCSKEYRVLLGQLQKQTALMQDTSRLLDPYIRIQGLDVPKLREHCRERPGAFPSEETLRGLGRRGFLQTLNATLGCVLHRLADLEQRLPKAQDLERSGLNIEDLEKLQMARPNILGLRNNIYCMAQLLDNSDTAEPTKAGRGASQPPTPTPASDAFQRKLEGCRFLHGYHRFMHSVGRVFSKWGESPNRSRR
modifications: left off: a dimerising Fc or GST; large carriers; small tags and cut ends
Expt 1 EC50: 0.0367 µg/mL | Expt 2 EC50: 0.016 µg/mL | 'Potency': EQUAL (80-120% Equal potency)

B9: (5) R11A: OSM-GST fusion, alanine for Arg 11 (protein)
chain: AAIGSCSKEYAVLLGQLQKQTDLMQDTSRLLDPYIRIQGLDVPKLREHCRERPGAFPSEETLRGLGRRGFLQTLNATLGCVLHRLADLEQRLPKAQDLERSGLNIEDLEKLQMARPNILGLRNNIYCMAQLLDNSDTAEPTKAGRGASQPPTPTPASDAFQRKLEGCRFLHGYHRFMHSVGRVFSKWGESPNRSRR
modifications: left off: a dimerising Fc or GST; large carriers; small tags and cut ends
Expt 1 EC50: 0.0286 µg/mL | Expt 2 EC50: 0.0277 µg/mL | 'Potency': EQUAL (80-120% Equal potency)

B10: (16) M113A: OSM-GST fusion, alanine for Met 113 (protein)
chain: AAIGSCSKEYRVLLGQLQKQTDLMQDTSRLLDPYIRIQGLDVPKLREHCRERPGAFPSEETLRGLGRRGFLQTLNATLGCVLHRLADLEQRLPKAQDLERSGLNIEDLEKLQAARPNILGLRNNIYCMAQLLDNSDTAEPTKAGRGASQPPTPTPASDAFQRKLEGCRFLHGYHRFMHSVGRVFSKWGESPNRSRR
modifications: left off: a dimerising Fc or GST; large carriers; small tags and cut ends
Expt 1 EC50: 0.0256 µg/mL | Expt 2 EC50: 0.025 µg/mL | 'Potency': EQUAL (80-120% Equal potency)

B11: (17) P116A: OSM-GST fusion, alanine for Pro 116 (protein)
chain: AAIGSCSKEYRVLLGQLQKQTDLMQDTSRLLDPYIRIQGLDVPKLREHCRERPGAFPSEETLRGLGRRGFLQTLNATLGCVLHRLADLEQRLPKAQDLERSGLNIEDLEKLQMARANILGLRNNIYCMAQLLDNSDTAEPTKAGRGASQPPTPTPASDAFQRKLEGCRFLHGYHRFMHSVGRVFSKWGESPNRSRR
modifications: left off: a dimerising Fc or GST; large carriers; small tags and cut ends
Expt 1 EC50: 0.025 µg/mL | Expt 2 EC50: 0.015 µg/mL | 'Potency': MORE (<80% More potent)

B12: (7) L14A: OSM-GST fusion, alanine for Leu 14 (protein)
chain: AAIGSCSKEYRVLAGQLQKQTDLMQDTSRLLDPYIRIQGLDVPKLREHCRERPGAFPSEETLRGLGRRGFLQTLNATLGCVLHRLADLEQRLPKAQDLERSGLNIEDLEKLQMARPNILGLRNNIYCMAQLLDNSDTAEPTKAGRGASQPPTPTPASDAFQRKLEGCRFLHGYHRFMHSVGRVFSKWGESPNRSRR
modifications: left off: a dimerising Fc or GST; large carriers; small tags and cut ends
Expt 1 EC50: 0.0194 µg/mL | Expt 2 EC50: 0.0249 µg/mL | 'Potency': MORE (<80% More potent)
